Source: article PMC9941103
“And” between values parts separate entries of the source, which are not always exact repeats. Equal entries are not always repeated. Blank lines part the entries; values can stand above or below the molecule they belong to.

Assays:
[1] = target: SNAP25(CtoS), cysteine-free variant of SNAP25 (UniProt P60881); assay: cross-linking; 10 µM of one protein alone, 0-1.5 mM BS3, 1 h at 25 °C; gel electrophoresis, Coomassie staining and western blot
[2] = target: SNAP25(CtoS), cysteine-free variant of SNAP25 (UniProt P60881); assay: native MS; 10 µM of one protein alone, 200 mM ammonium acetate
[3] = target: Synaptobrevin-2 variant lacking the transmembrane helix, Syb(1-96) (UniProt P63045); assay: native MS; SNAP25 and Synaptobrevin-2 mixed 1:2 and 2:1; settings: scale: SNAP25 per Synaptobrevin-2
[4] = target: Synaptobrevin-2 variant lacking the transmembrane helix, Syb(1-96) (UniProt P63045); assay: native MS; SNAP25 and Synaptobrevin-2 mixed 1:1; 200 mM ammonium acetate; settings: scale: SNAP25 per Synaptobrevin-2
[5] = target: pre-assembled binary SNAP25:Synaptobrevin-2 complex (2:1) (UniProt P60881); assay: as above
[6] = target: T1, full-length Complexin-1, P63041; assay: native MS; 10 µM of one protein alone, 200 mM ammonium acetate; settings: remark: other sources report otherwise
T1 chain: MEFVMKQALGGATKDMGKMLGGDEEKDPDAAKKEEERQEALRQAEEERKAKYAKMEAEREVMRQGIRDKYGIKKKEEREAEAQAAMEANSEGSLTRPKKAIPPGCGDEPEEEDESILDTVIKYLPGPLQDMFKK

Chain of UniProt P63045 (P63045 1-96, change not shown): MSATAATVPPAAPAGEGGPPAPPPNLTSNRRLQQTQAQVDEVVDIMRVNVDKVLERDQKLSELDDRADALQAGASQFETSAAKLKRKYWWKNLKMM

stoichiometry N [1]: < 5
Molecule: SNAP25(CtoS), cysteine-free variant of SNAP25 (from UniProt P60881 1-206)

stoichiometry N [2]: 2 and 3 | stoichiometry N [3]: 2 | stoichiometry N [4]: 2
Molecule: SNAP25(CtoS), cysteine-free variant of SNAP25 (from UniProt P60881 1-206) (natural protein)

stoichiometry N [5]: 2
Molecule: pre-assembled binary SNAP25:Synaptobrevin-2 complex (2:1) (from UniProt P60881 1-206; P63045 1-96)

stoichiometry N [6]: 2 and 3
B1: full-length Complexin-1, P63041 1-134 (natural protein)
chain: MEFVMKQALGGATKDMGKMLGGDEEKDPDAAKKEEERQEALRQAEEERKAKYAKMEAEREVMRQGIRDKYGIKKKEEREAEAQAAMEANSEGSLTRPKKAIPPGCGDEPEEEDESILDTVIKYLPGPLQDMFKK
